In article PMC5910400:

Molecular target: CXCL8 (human)

Substance | mean IC50 (three biological replicates) of inhibition of primary human granulocyte migration induced by the EC80 dose of CXCL8 [M]
P1243:G4S:P1156 two-warhead evasin (from UniProt A0A0C9S461;V5HBW0) | 3.8e-08
P1156:G4S:P1243 two-warhead evasin (from UniProt V5HBW0;A0A0C9S461) | 7.5e-09
